Blank lines part the entries; values can stand above or below the binder they belong to.
Key:
[1] = biological target: T1, K605A peptide (HER2 603-622 with K605A) (human); test: SPR Biacore, mAb on chip, peptide analyte, 1:1 fit;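 note: where kon or koff could not be resolved by kinetic fitting, Kd comes instead from steady-state equilibrium analysis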
T1 peptide: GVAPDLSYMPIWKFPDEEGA

[2] = biological target: T2, HER2-K615A expressed on CHO-K1 cells (human, UniProt P04626 23-1255); test: flow cytometry on CHO-K1 cells expressing HER2-K615A
T2 construct: also called K615A point mutant; not shown: PA tag at the N terminus; RAP tag and MAP tag at the C terminus

[3] = biological target: T3, W614A peptide (HER2 603-622 with W614A) (human); test: SPR Biacore, mAb on chip, peptide analyte, equilibrium analysis (ka N.D.)
T3 peptide: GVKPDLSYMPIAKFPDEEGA

HER2 peptide p614-619 = biological target: T4, HER2 peptide p614-619 (human); test: SPR Biacore, mAb on chip, peptide analyte, 1:1 fit;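 note: all binding measurements run at 25 °C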
T4 peptide: WKFPDE

HER2 peptide p613-619 = biological target: T5, HER2 peptide p613-619 (human); test: SPR Biacore, mAb on chip, peptide analyte, 1:1 fit;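 note: all binding measurements run at 25 °C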
T5 peptide: IWKFPDE

HER2 peptide p613-620 = biological target: T6, HER2 peptide p613-620 (human); test: SPR Biacore, mAb on chip, peptide analyte, 1:1 fit;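 note: all binding measurements run at 25 °C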
T6 peptide: IWKFPDEE

HER2 peptide p612-618 = biological target: T7, HER2 peptide p612-618 (human); test: SPR Biacore, mAb on chip, peptide analyte, 1:1 fit;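 note: all binding measurements run at 25 °C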
T7 construct: also called PIWKFPD
T7 peptide: PIWKFPD

HER2 peptide p612-620 = biological target: T8, HER2 peptide p612-620 (human); test: SPR Biacore, mAb on chip, peptide analyte, 1:1 fit;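 note: all binding measurements run at 25 °C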
T8 peptide: PIWKFPDEE

HER2 peptide p612-621 = biological target: T9, HER2 peptide p612-621 (human); test: SPR Biacore, mAb on chip, peptide analyte, 1:1 fit;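 note: all binding measurements run at 25 °C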
T9 peptide: PIWKFPDEEG

HER2 peptide p611-618 = biological target: T10, HER2 peptide p611-618 (human); test: SPR Biacore, mAb on chip, peptide analyte, 1:1 fit
T10 peptide: MPIWKFPD

HER2 peptide p611-619 = biological target: T11, HER2 peptide p611-619 (human); test: SPR Biacore, mAb on chip, peptide analyte, 1:1 fit
T11 peptide: MPIWKFPDE

HER2 peptide p611-620 = biological target: T12, HER2 peptide p611-620 (human); test: SPR Biacore, mAb on chip, peptide analyte, 1:1 fit
T12 peptide: MPIWKFPDEE

HER2 peptide p611-622 = biological target: T13, HER2 peptide p611-622 (human); test: SPR Biacore, mAb on chip, peptide analyte, 1:1 fit
T13 peptide: MPIWKFPDEEGA

HER2 peptide p610-618 = biological target: T14, HER2 peptide p610-618 (human); test: SPR Biacore, mAb on chip, peptide analyte, 1:1 fit
T14 peptide: YMPIWKFPD

HER2 peptide p610-619 = biological target: T15, HER2 peptide p610-619 (human); test: SPR Biacore, mAb on chip, peptide analyte, 1:1 fit
T15 peptide: YMPIWKFPDE

HER2 peptide p610-620 = biological target: T16, HER2 peptide p610-620 (human); test: SPR Biacore, mAb on chip, peptide analyte, 1:1 fit
T16 peptide: YMPIWKFPDEE

HER2 peptide p610-622 = biological target: T17, HER2 peptide p610-622 (human); test: SPR Biacore, mAb on chip, peptide analyte, 1:1 fit
T17 peptide: YMPIWKFPDEEGA

HER2 peptide p609-618 = biological target: T18, HER2 peptide p609-618 (human); test: SPR Biacore, mAb on chip, peptide analyte, 1:1 fit
T18 peptide: SYMPIWKFPD

HER2 peptide p609-619 = biological target: T19, HER2 peptide p609-619 (human); test: SPR Biacore, mAb on chip, peptide analyte, 1:1 fit
T19 peptide: SYMPIWKFPDE

HER2 peptide p609-620 = biological target: T20, HER2 peptide p609-620 (human); test: SPR Biacore, mAb on chip, peptide analyte, 1:1 fit
T20 peptide: SYMPIWKFPDEE

HER2 peptide p609-622 = biological target: T21, HER2 peptide p609-622 (human); test: SPR Biacore, mAb on chip, peptide analyte, 1:1 fit
T21 peptide: SYMPIWKFPDEEGA

[4] = biological target: T22, I613A peptide (HER2 603-622 with I613A) (human); test: SPR Biacore, mAb on chip, peptide analyte, equilibrium analysis
T22 construct: also called 1613A
T22 peptide: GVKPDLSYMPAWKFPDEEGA

[5] = biological target: T3, W614A peptide (HER2 603-622 with W614A); test: as above
[6] = biological target: T23, K615A peptide (HER2 603-622 with K615A) (human); test: as above
T23 peptide: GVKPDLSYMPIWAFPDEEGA

[7] = biological target: T24, F616A peptide (HER2 603-622 with F616A) (human); test: as above
T24 peptide: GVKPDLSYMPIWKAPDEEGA

Kd [1]: 0.00645 µM | koff [1]: 0.000346 s⁻¹ | kon [1]: 53600 M⁻¹ s⁻¹ | binding result [2]: binds | Kd [3]: 1050 µM
B1: H2Mab-250 antibody (antibody, V domains shown)
VH: EVQLVESGGGLVQPGGSLKLSCAASGFTFSNYGMSWVRQTPDRRLELVATINNNGGGTYYPDSVKGRFTISRDNAKNTLYLQMSSLKSEDTAMYYCTSPGLLWDAWGAGTTVTVSS
VL: not shown
notes: Mouse monoclonal from a hybridoma (immunogen HER2ec made in LN229 cells); also called antibody of the present invention

Kd (HER2 peptide p614-619): 8.54 µM | koff (HER2 peptide p614-619): 0.0119 s⁻¹ | kon (HER2 peptide p614-619): 1400 M⁻¹ s⁻¹ | Kd (HER2 peptide p613-619): 1.61 µM | koff (HER2 peptide p613-619): 0.0136 s⁻¹ | kon (HER2 peptide p613-619): 8450 M⁻¹ s⁻¹ | Kd (HER2 peptide p613-620): 2.31 µM | koff (HER2 peptide p613-620): 0.01 s⁻¹ | kon (HER2 peptide p613-620): 4340 M⁻¹ s⁻¹ | Kd (HER2 peptide p612-618): 0.0277 µM | koff (HER2 peptide p612-618): 0.013 s⁻¹ | kon (HER2 peptide p612-618): 467000 M⁻¹ s⁻¹ | Kd (HER2 peptide p612-620): 0.0237 µM | koff (HER2 peptide p612-620): 0.0179 s⁻¹ | kon (HER2 peptide p612-620): 754000 M⁻¹ s⁻¹ | Kd (HER2 peptide p612-621): 0.0279 µM | koff (HER2 peptide p612-621): 0.024 s⁻¹ | kon (HER2 peptide p612-621): 859000 M⁻¹ s⁻¹ | Kd (HER2 peptide p611-618): 0.021 µM | koff (HER2 peptide p611-618): 0.0141 s⁻¹ | kon (HER2 peptide p611-618): 669000 M⁻¹ s⁻¹ | Kd (HER2 peptide p611-619): 0.0111 µM | koff (HER2 peptide p611-619): 0.0083 s⁻¹ | kon (HER2 peptide p611-619): 747000 M⁻¹ s⁻¹ | Kd (HER2 peptide p611-620): 0.0176 µM | koff (HER2 peptide p611-620): 0.00836 s⁻¹ | kon (HER2 peptide p611-620): 475000 M⁻¹ s⁻¹ | Kd (HER2 peptide p611-622): 0.0239 µM | koff (HER2 peptide p611-622): 0.0108 s⁻¹ | kon (HER2 peptide p611-622): 451000 M⁻¹ s⁻¹ | Kd (HER2 peptide p610-618): 0.0145 µM | koff (HER2 peptide p610-618): 0.0121 s⁻¹ | kon (HER2 peptide p610-618): 837000 M⁻¹ s⁻¹ | Kd (HER2 peptide p610-619): 0.00574 µM | koff (HER2 peptide p610-619): 0.0051 s⁻¹ | kon (HER2 peptide p610-619): 889000 M⁻¹ s⁻¹ | Kd (HER2 peptide p610-620): 0.00868 µM | koff (HER2 peptide p610-620): 0.00502 s⁻¹ | kon (HER2 peptide p610-620): 579000 M⁻¹ s⁻¹ | Kd (HER2 peptide p610-622): 0.0388 µM | koff (HER2 peptide p610-622): 0.00598 s⁻¹ | kon (HER2 peptide p610-622): 154000 M⁻¹ s⁻¹ | Kd (HER2 peptide p609-618): 0.0143 µM | koff (HER2 peptide p609-618): 0.0107 s⁻¹ | kon (HER2 peptide p609-618): 747000 M⁻¹ s⁻¹ | Kd (HER2 peptide p609-619): 0.00576 µM | koff (HER2 peptide p609-619): 0.00449 s⁻¹ | kon (HER2 peptide p609-619): 779000 M⁻¹ s⁻¹ | Kd (HER2 peptide p609-620): 0.00689 µM | koff (HER2 peptide p609-620): 0.00445 s⁻¹ | kon (HER2 peptide p609-620): 645000 M⁻¹ s⁻¹ | Kd (HER2 peptide p609-622): 0.00937 µM | koff (HER2 peptide p609-622): 0.00526 s⁻¹ | kon (HER2 peptide p609-622): 561000 M⁻¹ s⁻¹ | Kd [4]: 39.3 µM | Kd [5]: 1.46 µM | Kd [6]: 578 µM | Kd [7]: 410 µM
B2: H2Mab-214 antibody (antibody, V domains shown)
VH: QVTLKESGPGILQPSQTLSLTCSFSGFSLSTSGMGVSWIRQPSGKGLEWLAHIFWDDDKRYNPSLKSRLTISKDTSRNKVFLKITSVDTADTATYYCARRVVATDWYFDVWGAGTTVTVSS
VL: DIVLTQSPASLAVSLGQRATISCRASESVEYYGTTLMQWYQQKPGQPPKLLIYAASKVESGVPARFSGSGSGTDFSLNIHPVEEDDVAMYFCQQSRKVPLTFGAGTKLELKR
notes: as for B1
